First the molecules themselves.
B1: TGF-βRII-Fc (muTGFbRII-mFc) (Fc fusion, UniProt Q62312 24-166, looked up)
chain: IPPHVPKSVNSDVMASDNGGAVKLPQLCKFCDVRLSTCDNQKSCMSNCSITAICEKPHEVCVAVWRKNDKNITLETVCHDPKLTYHGFTLEDAASPKCVMKEKKRAGETFFMCACNMEECNDYIIFSEEYTTSSPDLLLVIIQ
B2: Transforming growth factor-β3 (TGF-β3) (ligand, UniProt P10600 301-412, looked up)
chain: ALDTNYCFRNLEENCCVRPLYIDFRQDLGWKWVHEPKGYYANFCSGPCPYLRSADTTHSTVLGLYNTLNPEASASPCCVPQDLEPLTILYYVGRTPKVEQLSNMVVKSCKCS
notes: TGF-β3 ligand used as SPR analyte

In experiment [1] the target is Transforming growth factor-β1 (TGF-β1) (UniProt P01137 279-390). The experiment in a line: cell-based or functional assay.
Transforming growth factor-β1 (TGF-β1), sequence (P01137 279-390): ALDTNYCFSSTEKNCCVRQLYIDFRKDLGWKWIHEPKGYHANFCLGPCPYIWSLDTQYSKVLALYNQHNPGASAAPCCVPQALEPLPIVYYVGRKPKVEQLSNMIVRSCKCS
Experiment [2] addresses B2. As to the kind of experiment: cell-based or functional assay.
The target in experiment [3] is B1. The experiment in a line: SPR; Biacore T100; TGF-βRII-Fc captured (~50 RU) by an anti-mouse Fc antibody amine-coupled to a CM5 chip; ligand injected at 0.013-10 nM (0.013-1.1 nM used for the fit); HBS-EP with 350 mM NaCl and 0.5 mg/mL BSA; 1:1 model with mass transport, KD = kd/ka. As to conditions: both partners purified. For orientation: Surface plasmon resonance follows binding to a sensor surface in real time, without labels.

As to B1, the “IC50 of TGF-βRII-Fc against TGF-β1 (640 pg/mL) signalling in A549 cells with the (CAGA)12 luciferase reporter” value in experiment [1] turned out to be 22.9 pM. Also, the “IC50 of TGF-βRII-Fc against TGF-β3 (270 pg/mL) signalling in A549 cells with the (CAGA)12 luciferase reporter” value in experiment [2] was found to be 4.46 pM.

B2 displayed a Kd in experiment [3] of 0.0112 nM.

What is called Kd is the constant that tells how readily two partners part at equilibrium. A higher Kd goes with lower affinity.

For the origin of these results see PMC9714796, “Macrophage TGF-β signaling is critical for wound healing with heterotopic ossification after trauma” (JCI Insight, 2022).
